The values that follow come from US20100028340A1.

The target in experiment [1] is T1, recombinant purified human RGM A (R&D Systems Cat# 2459-RM) (human) (UniProt Q96B86).
T1 sequence: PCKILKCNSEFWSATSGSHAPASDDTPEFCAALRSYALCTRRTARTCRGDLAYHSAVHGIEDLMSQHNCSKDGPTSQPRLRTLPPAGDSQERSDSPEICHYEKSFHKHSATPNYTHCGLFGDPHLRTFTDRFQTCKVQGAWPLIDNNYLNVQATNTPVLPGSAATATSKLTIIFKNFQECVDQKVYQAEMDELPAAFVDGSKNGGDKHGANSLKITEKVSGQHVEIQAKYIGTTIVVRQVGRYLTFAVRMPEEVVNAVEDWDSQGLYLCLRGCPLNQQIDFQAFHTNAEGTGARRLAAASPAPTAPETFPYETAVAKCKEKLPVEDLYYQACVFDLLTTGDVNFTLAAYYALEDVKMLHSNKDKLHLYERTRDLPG
Briefly: competition ELISA on coated hRGMA; competitor biotinylated chimeric 5F9. For orientation: ELISA stands for enzyme-linked immunosorbent assay.

For experiment [2], the target named is T1, recombinant purified human RGM A (R&D Systems Cat# 2459-RM) (human). Put plainly: SPR (Biacore 3000), antibody captured by anti-human IgG Fc, hRGMA in solution, 25 °C.

The IC50 is the point on the concentration scale where inhibition reaches its midpoint. Usually Kd stands for the free concentration of one partner at which half of the binding sites on the other are occupied at equilibrium, for simple one-to-one binding. What is called koff is the rate constant with which the complex falls apart. For orientation: kon means a measure of how fast the partners come together.

B1: h5F9.21 (antibody, human IgG1, V domains shown)
VH: EVQLVESGGGVVQPGRSLRLSCAASGFTFSNYGMNWIRQAPGKGLEWIGMIYYDSSEKHYADSVKGRFTISRDNSKNTLYLQMNSLRAEDTAVYYCAKGTTPDYWGQGTMVTVSS
VL: DVVLTQSPLSLPVTLGQPASISCRSSQSLEYSDGYTFLEWFLQKPGQSPQLLIYEVSNRFSGVPDRFSGSGSGTDFTLKISRVEAEDVGVYYCFQATHDPLTFGQGTKLEIKR
Turning to B1, in experiment [1], the IC50 stood at 0.6 µg/mL. In experiment [2], the Kd came to 7.59 nM, the koff stood at 0.00269 s⁻¹ and the kon amounted to 355000 M⁻¹ s⁻¹.

B2: h5F9.24 (antibody, human IgG1, V domains shown)
VH: EVQLVESGGGLVQPGGSLRLSCAASGFTFSNYGMNWIRQAPGKGLEWIGMIYYDSSEKHYADSVKGRFTISRDNSKNTLYLQMNSLRAEDTAVYYCAKGTTPDYWGQGTMVTVSS
VL: DVVLTQSPLSLPVTLGQPASISCRSSQSLEYSDGYTFLEWFQQRPGQSPRRLIYEVSNRFSGVPDRFSGSGSGTDFTLKISRVEAEDVGVYYCFQATHDPLTFGQGTKLEIKR
On to B2, for which the IC50 in experiment [1] is 1.32 µg/mL.

B3: chimeric 5F9 (antibody, V domains shown)
VH: EVQLVESGGGLVQPGSSLKLSCVASGFTFSNYGMNWIRQAPKKGLEWIGMIYYDSSEKHYADSVKGRFTISRDNSKNTLYLEMNSLRSEDTAIYYCAKGTTPDYWGQGVMVTVSS
VL: DVVLTQTPVSLSVTLGDQASMSCRSSQSLEYSDGYTFLEWFLQKPGQSPQLLIYEVSNRFSGVPDRFIGSGSGTDFTLKISRVEPEDLGVYYCFQATHDPLTFGSGTKLEIKR
Turning to B3, in experiment [2], the Kd was found to be 3.09 nM, the koff was determined as 0.00236 s⁻¹ and the kon amounted to 765000 M⁻¹ s⁻¹.

B4: h5F9.23 (antibody, human IgG1, V domains shown)
VH: EVQLVESGGGLVQPGGSLRLSCAASGFTFSNYGMNWIRQAPGKGLEWIGMIYYDSSEKHYADSVKGRFTISRDNSKNTLYLQMNSLRAEDTAVYYCAKGTTPDYWGQGTMVTVSS
VL: DVVLTQSPLSLPVTLGQPASISCRSSQSLEYSDGYTFLEWFQQRPGQSPRLLIYEVSNRFSGVPDRFSGSGSGTDFTLKISRVEAEDVGVYYCFQATHDPLTFGQGTKLEIKR
B4: the IC50 in experiment [1] is 0.55 µg/mL. In experiment [2], the Kd was 4.37 nM, the koff was determined as 0.00221 s⁻¹ and the kon is 507000 M⁻¹ s⁻¹.

B5: h5F9.25 (antibody, human IgG1, V domains shown)
VH: EVQLVESGGGLVQPGGSLRLSCAASGFTFSNYGMNWIRQAPGKGLEWIGMIYYDSSEKHYADSVKGRFTISRDNSKNTLYLQMNSLRAEDTAVYYCAKGTTPDYWGQGTMVTVSS
VL: DVVLTQSPLSLPVTLGQPASISCRSSQSLEYSDGYTFLEWFLQKPGQSPQLLIYEVSNRFSGVPDRFSGSGSGTDFTLKISRVEAEDVGVYYCFQATHDPLTFGQGTKLEIKR
Consider B5, for which the IC50 in experiment [1] was 0.66 µg/mL. Besides, in experiment [2], the Kd was 5.78 nM, the koff was found to be 0.00329 s⁻¹ and the kon amounted to 570000 M⁻¹ s⁻¹.
